Results from patent US20210063414A1, “METHODS FOR PREVENTING AND/OR TREATING BONE LOSS CONDITIONS BY MODULATING IRISIN” (Dana-Farber Cancer Institute, Inc., priority 2018, published 2021).

Columns and labels:
[1] = target: T1, integrin αV/β5 (Homo sapiens, UniProt P06756+P18084); assay: FAK phosphorylation in HEK293T cells with forced expression of integrin αV/β5; assay type: cell-based; settings: HEK293T with integrin αV/β5, vitronectin-coated plates
T1 construct: expressed in transfected cells; host or cells: HEK293T
T1 sequence (P06756 31-889 limits assumed): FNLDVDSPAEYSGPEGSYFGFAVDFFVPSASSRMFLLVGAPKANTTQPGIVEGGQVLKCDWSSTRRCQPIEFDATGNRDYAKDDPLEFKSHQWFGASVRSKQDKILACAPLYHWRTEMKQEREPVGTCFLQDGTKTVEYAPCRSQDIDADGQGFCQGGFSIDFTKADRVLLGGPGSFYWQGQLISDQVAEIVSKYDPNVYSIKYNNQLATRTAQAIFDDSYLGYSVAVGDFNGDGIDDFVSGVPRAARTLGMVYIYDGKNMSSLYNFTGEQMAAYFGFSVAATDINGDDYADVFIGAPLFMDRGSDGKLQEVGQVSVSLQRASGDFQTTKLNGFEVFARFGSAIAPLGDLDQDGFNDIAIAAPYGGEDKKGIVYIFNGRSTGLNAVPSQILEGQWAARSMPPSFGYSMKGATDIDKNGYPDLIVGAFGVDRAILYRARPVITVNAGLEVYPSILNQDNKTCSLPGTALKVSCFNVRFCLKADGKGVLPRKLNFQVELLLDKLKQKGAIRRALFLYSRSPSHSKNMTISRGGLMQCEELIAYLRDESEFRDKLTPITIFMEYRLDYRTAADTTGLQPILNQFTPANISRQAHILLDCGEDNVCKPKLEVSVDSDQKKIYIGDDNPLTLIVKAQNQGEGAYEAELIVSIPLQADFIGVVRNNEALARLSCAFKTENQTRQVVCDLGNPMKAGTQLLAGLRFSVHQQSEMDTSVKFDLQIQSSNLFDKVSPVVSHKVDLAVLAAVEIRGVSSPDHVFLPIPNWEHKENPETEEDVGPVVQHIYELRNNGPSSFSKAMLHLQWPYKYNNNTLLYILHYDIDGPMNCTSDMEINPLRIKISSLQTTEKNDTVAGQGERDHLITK
T1 sequence (P06756 891-1048 partner limits assumed): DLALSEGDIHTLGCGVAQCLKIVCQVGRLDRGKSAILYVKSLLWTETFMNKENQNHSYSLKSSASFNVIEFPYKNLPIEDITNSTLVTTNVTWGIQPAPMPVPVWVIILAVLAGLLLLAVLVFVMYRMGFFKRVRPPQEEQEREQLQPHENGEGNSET
T1 sequence (P18084 24-799): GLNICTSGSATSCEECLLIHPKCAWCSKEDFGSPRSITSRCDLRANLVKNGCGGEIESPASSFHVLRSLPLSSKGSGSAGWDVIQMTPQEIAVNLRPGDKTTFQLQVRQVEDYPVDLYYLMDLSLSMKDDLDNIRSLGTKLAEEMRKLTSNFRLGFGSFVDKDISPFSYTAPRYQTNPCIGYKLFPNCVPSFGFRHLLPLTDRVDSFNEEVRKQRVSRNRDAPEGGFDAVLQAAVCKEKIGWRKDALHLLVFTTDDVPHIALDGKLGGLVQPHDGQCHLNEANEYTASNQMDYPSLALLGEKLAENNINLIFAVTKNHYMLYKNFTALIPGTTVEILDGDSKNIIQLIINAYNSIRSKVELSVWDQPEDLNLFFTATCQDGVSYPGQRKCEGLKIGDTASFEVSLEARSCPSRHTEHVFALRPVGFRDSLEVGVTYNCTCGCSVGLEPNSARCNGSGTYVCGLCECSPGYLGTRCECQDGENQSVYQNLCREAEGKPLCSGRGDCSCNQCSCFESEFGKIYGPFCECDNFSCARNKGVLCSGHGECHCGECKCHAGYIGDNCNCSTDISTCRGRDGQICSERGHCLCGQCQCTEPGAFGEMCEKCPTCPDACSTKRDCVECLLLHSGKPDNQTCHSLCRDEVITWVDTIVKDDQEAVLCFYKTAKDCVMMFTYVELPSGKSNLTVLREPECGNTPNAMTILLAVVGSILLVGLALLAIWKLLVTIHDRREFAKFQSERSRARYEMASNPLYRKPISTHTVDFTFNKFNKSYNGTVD
Protocol: 100 nM irisin was incubated with 5 nM indicated his-tag integrins followed by immunoprecipitation using Ni-NTA agaroses. Precipitated integrins and co-precipitated irisin were analyzed by immunoblot analysis. […] HEK293T cells were seeded and incubated until 50% cell density. The cells were transfected with 0.1 μg plasmids of indicated integrins. After 48 hours, the cells were incubated with Freestyle293 medium for 3 hours and were treated with indicated concentration of irisin for 5 minutes. Cells were lysed to detect the indicated protein level using immunoblot analysis. […] MLO-Y4 cells were treated as described in FIG. 2D with addition of pretreatment of indicated antagonistic antibodies for 10 minutes. Cells were lysed to detect the indicated protein level using immunoblot analysis. […] MLO-Y4 cells were treated as described in FIG. 1B except with addition of the pretreatment of indicated antagonistic antibodies for 10 minutes. Sclerostin mRNA level was analyzed by qRT-PCR. Cyclophilin was used for house-keeping gene. […] The ribbon diagram is colored by HDX stabilization/destabilization. Percentages of deuterium differences are color-coded according to the smooth color gradient key at the bottom. Crystal structure of irisin dimer is from Protein Data Bank (PDB) (4 lsd) and a homology model of integrin β5 was built based on integrin β3 structure from PDB (4MMX).
100 nM irisin was incubated with 5 nM indicated his-tag integrins followed by immunoprecipitation using Ni-NTA agaroses. Precipitated integrins and co-precipitated irisin were analyzed by immunoblot analysis. […] HEK293T cells were seeded and incubated until 50% cell density. The cells were transfected with 0.1 μg plasmids of indicated integrins. After 48 hours, the cells were re-split to indicated dose of vitronectin-coated plates. Cells were incubated with culture medium for 3 hours. Cells were lysed to detect the indicated protein level using immunoblot analysis. FIG. 15C and FIG. 15D show the immunoblot data. Cells were treated and analyzed as FIG. 14B except using plasmids encoding integrin α5/β1 or integrin α11/β1 (FIG. 15C) integrin αV/β1(FIG. 15D).
MLO-Y4 cells were treated and analyzed as described in FIG. 5A with addition of pretreatment of control RGD peptide, cyclo RGDyK (cRGDyK), or SB273005. […] HEK293 cells were treated and analyzed as described in FIG. 14B except the treatment of different dose of cyclo RGDyK. […] 8 weeks old male mice were treated and analyzed as described in FIG. 5D except the additional group with co-injection of 1 mg/kg SB273005. […]
(§1) Cells were harvested in RIPA buffer containing protease-inhibitor cocktail and phosphataseinhibitor cocktail. […] Protein levels were analyzed via western blot using indicated antibody. […]

[2] = target: T2, integrin αV/β3 (Homo sapiens, UniProt P05106+P06756); assay: FAK phosphorylation in HEK293T cells with forced expression of integrin αV/β3; assay type: cell-based; settings: HEK293T with integrin αV/β3, vitronectin-coated plates
T2 construct: expressed in transfected cells; host or cells: HEK293T
T2 sequence (P06756 31-889 limits assumed): as the sequence (P06756 31-889 limits assumed) above
T2 sequence (P06756 891-1048 partner limits assumed): as the sequence (P06756 891-1048 partner limits assumed) above
T2 sequence (P05106 27-788): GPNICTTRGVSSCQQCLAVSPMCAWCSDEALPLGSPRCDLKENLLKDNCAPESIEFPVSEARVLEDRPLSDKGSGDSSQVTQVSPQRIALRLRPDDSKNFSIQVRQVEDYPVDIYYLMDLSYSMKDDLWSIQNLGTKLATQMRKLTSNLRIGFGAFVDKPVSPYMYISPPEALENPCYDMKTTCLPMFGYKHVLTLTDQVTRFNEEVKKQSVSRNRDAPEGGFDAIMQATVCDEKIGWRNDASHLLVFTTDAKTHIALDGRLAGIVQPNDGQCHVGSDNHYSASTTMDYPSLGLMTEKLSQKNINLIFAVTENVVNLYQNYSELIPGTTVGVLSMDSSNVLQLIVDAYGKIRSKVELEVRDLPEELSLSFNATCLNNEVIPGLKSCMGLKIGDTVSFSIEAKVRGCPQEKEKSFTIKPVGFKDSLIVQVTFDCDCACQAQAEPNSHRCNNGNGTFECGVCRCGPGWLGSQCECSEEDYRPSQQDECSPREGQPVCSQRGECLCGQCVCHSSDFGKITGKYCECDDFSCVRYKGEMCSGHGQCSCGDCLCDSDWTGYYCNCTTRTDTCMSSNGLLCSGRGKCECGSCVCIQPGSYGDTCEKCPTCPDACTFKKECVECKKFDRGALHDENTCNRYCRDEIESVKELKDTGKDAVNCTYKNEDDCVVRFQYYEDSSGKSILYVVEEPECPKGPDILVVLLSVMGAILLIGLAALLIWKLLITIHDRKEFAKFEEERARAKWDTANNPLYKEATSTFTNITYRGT
Protocol: 100 nM irisin was incubated with 5 nM indicated his-tag integrins followed by immunoprecipitation using Ni-NTA agaroses. Precipitated integrins and co-precipitated irisin were analyzed by immunoblot analysis. […] HEK293T cells were seeded and incubated until 50% cell density. The cells were transfected with 0.1 μg plasmids of indicated integrins. After 48 hours, the cells were incubated with Freestyle293 medium for 3 hours and were treated with indicated concentration of irisin for 5 minutes. Cells were lysed to detect the indicated protein level using immunoblot analysis. […] MLO-Y4 cells were treated as described in FIG. 2D with addition of pretreatment of indicated antagonistic antibodies for 10 minutes. Cells were lysed to detect the indicated protein level using immunoblot analysis. […] Sclerostin mRNA level was analyzed by qRT-PCR. […]
100 nM irisin was incubated with 5 nM indicated his-tag integrins followed by immunoprecipitation using Ni-NTA agaroses. Precipitated integrins and co-precipitated irisin were analyzed by immunoblot analysis. […] Cells were treated and analyzed as FIG. 14B except using plasmids encoding integrin α5/β1 or integrin α11/β1 (FIG. 15C) integrin αV/β1(FIG. 15D). […]
as §1

phosphorylation of FAK (positive control) [1]: induced phosphorylation of FAK | phosphorylation of FAK (positive control) [2]: induced phosphorylation of FAK
Substance: Vitronectin: a ligand for integrin αV family, positive control [reference compound]
